Measured values: patent US20090111745A1 (DOMANTIS, published 2009)

How the values were obtained:
mouse serum albumin [1] = biological target: T1, mouse serum albumin (mouse, UniProt P07724 25-608); test: table of affinities (KD); BIACORE on serum albumin-coated chip according to Example 1;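 note: surface plasmon resonance with dAbs flowed over a chip carrying human, rat or mouse serum albumin, blocked uncoated flow cell as reference, KD from on- and off-rate curve fits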
T1 construct: also called MSA
Procedure: (§1) dAbs that bound serum albumin on a BIACORE chip (Biacore AB) were then further analysed to obtain information on affinity. The analysis was performed using a CM5 chip (carboxymethylated dextran matrix) that was coated with serum albumin. Flow cell 1 was an uncoated, blocked negative control, flow cell 2 was coated with HSA, flow cell 3 was coated with RSA and flow cell 4 was coated with MSA. The serum albumins were immobilised in acetate buffer pH 5.5 using the BIACORE coating wizard which was programmed to aim for 500 resonance units (RUs) of coated material. Each dAb of interest was expressed in the periplasm of E. coli on a 200 mL-500 mL scale and purified from the supernatant using batch absorption to protein A-streamline affinity resin (Amersham, UK) for the VH_{^S} and to protein L-agarose affinity resin (Affitech, Norway) for the Vκs followed by elution with glycine at pH 2.2 and buffer exchange to PBS. A range of concentrations of dAb were prepared (in the range 5 nM to 5 μM) by dilution into BIACORE HBS-EP buffer and flowed across the BIACORE chip.

rat serum albumin [2] = biological target: T2, rat serum albumin (rat, UniProt P02770 25-608); test: affinity (KD) for rat serum albumin; method not stated in the table (BIACORE SPR in Example 1)
T2 construct: also called RSA

human serum albumin [3] = biological target: T3, human serum albumin (human, UniProt P02768 25-609); test: table of affinities (KD); BIACORE on serum albumin-coated chip according to Example 1; '+' = detectable binding but weak (estimated KD > 5 µM);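 for result: surface plasmon resonance with dAbs flowed over a chip carrying human, rat or mouse serum albumin, blocked uncoated flow cell as reference, KD from on- and off-rate curve fits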
T3 construct: also called HSA; HAS
Procedure: as §1

human serum albumin [4] = biological target: T3, human serum albumin; test: BIACORE SPR screen, column 'Biacore binding'
Source text: (§2) If a significant proportion of the clones in one of the selections were positive in the phage ELISA, then DNA from this selection was cloned into an expression vector for production of soluble dAb, and individual colonies were picked. […] Clones were then sequenced and unique dAb sequences identified.

human serum albumin [5] = biological target: T3, human serum albumin; test: table of affinities (KD); BIACORE on serum albumin-coated chip according to Example 1;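 note: surface plasmon resonance with dAbs flowed over a chip carrying human, rat or mouse serum albumin, blocked uncoated flow cell as reference, KD from on- and off-rate curve fits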
Procedure: as §1

rat serum albumin [6] = biological target: T2, rat serum albumin; test: phage display selection on albumin (figure legend)
mouse serum albumin [7] = biological target: T1, mouse serum albumin; test: BIACORE SPR screen, column 'Biacore binding'
Source text: as §2

rat serum albumin [8] = biological target: T2, rat serum albumin; test: BIACORE SPR screen, column 'Biacore binding'
Source text: as §2

rat serum albumin [9] = biological target: T2, rat serum albumin; test: table of affinities (KD); BIACORE on serum albumin-coated chip according to Example 1;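 note: surface plasmon resonance with dAbs flowed over a chip carrying human, rat or mouse serum albumin, blocked uncoated flow cell as reference, KD from on- and off-rate curve fits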
Procedure: as §1

human serum albumin [10] = biological target: T3, human serum albumin; test: BIACORE SPR, albumin on a CM5 chip, dAb in solution
Procedure: as §1

human serum albumin [11] = biological target: T3, human serum albumin; test: phage display selection on albumin (figure legend)

B1: DOM7r-31 (other)
VH: EVQLLESGGGLVQPGGSLRLSCTASGFTFRHYRMGWVRQAPGKGLEWVSWIRPDGTFTYYADSVKGRFTISRDNSKNTLYLQMNSLRAEDTAVYYCAKSYMGDRFDYWGQGTLVTVSS
Kd (mouse serum albumin [1]): 1000 nM
Kd (rat serum albumin [2]): 5000 nM
Kd (human serum albumin [3]): ~10000 nM

B2: DOM7h-25 (other)
VH: EVQLLESGGGLVQPGGSLRLSCAASGFTFWKYNMAWVRQAPGKGLEWVSTILGEGNNTYYADSVKGRFTISRDNSKNTLYLQMNSLRAEDTAVYYCAKTMDYKFDYWGQGTLVTVSS
binding result (human serum albumin [4]): binds

B3: DOM7r-27 (other)
VH: EVQLLESGGGLVQPGGSLRLSCAASGFTFWPYTMSWVRQAPGKGLEWVSTISPFGSTTYYADSVKGRFTISRDNSKNTLYLQMNSLRAEDTAVYYCAKSDVLKTGLDGFDYWGQGTLVTVSS
Kd (mouse serum albumin [1]): 250 nM
binding result (human serum albumin [5]): no binding
Kd (rat serum albumin [2]): 250 nM

B4: DOM7r-15 (other)
VL: DIQMTQSPSSLSASVGDRVTITCRASQSIGRRLKWYQQKPGAAPRLLIYRTSWLQSGVPSRFSGSGSGTDFTLTISSLQPEDFATYYCQQTSQWPHTFGQGTKVEIKR
binding result (rat serum albumin [6]): binds

B5: DOM7r-7 (other)
VL: DIQMTQSPSSLSASVGDRVTITCRASQYIGRYLRWYQQKPGKAPKLLIYDSSVLQSGVPSRFSGSGSGTDFTLTISSLQPEDFATYYCQQRYSSPYTFGQGTKVEIKR
binding result (mouse serum albumin [7]): binds
binding result (rat serum albumin [8]): binds

B6: DOM7r-8 (other)
VL: DIQMTQSPSSLSASVGDRVTITCRASQWIHRQLKWYQQKPGKAPKLLIYYASILQSGVPSRFSGSGSGTDFTLTISSLQPEDFATYYCQQTFSKPSTFGQGTKVEIKR
Kd (mouse serum albumin [1]): 40 nM
binding result (human serum albumin [5]): no binding
Kd (rat serum albumin [9]): 20 nM

B7: DOM7r-18 (other)
VL: DIQMTQSPSSLSASVGDRVTITCRASQWIYKSLGWYQQKPGKAPKLLIYQSSLLQSGVPSRFSGSGSGTDFTLTISSLQPEDFATYYCQQYHQMPRTFGQGTKVEIKR
binding result (rat serum albumin [6]): binds

B8: DOM7h-2 (other)
VL: DIQMTQSPSSLSASVGDRVTITCRASQKIATYLNWYQQKPGKAPKLLIYRSSSLQSAVPSRFSGSGSGTVFTLTISSLQPEDFATYYCQQTYAVPPTFGQGTKVEIKR
Kd (human serum albumin [10]): 10 to 100 nM
Kd (mouse serum albumin [1]): > 5000 nM
Kd (human serum albumin [5]): 70 nM
Kd (rat serum albumin [9]): > 5000 nM

B9: DOM7r-17 (other)
VL: DIQMTQSPSSLSASVGDRVTITCRASQKIYNNLRWYQQKPGKAPKLLIYNTSILQSGVPSRFSGSGSGTDFTLTISSLQPEDFATYYCQQRWRAPYTFGQGTKVEIKR
binding result (rat serum albumin [6]): binds

B10: DOM7r-5 (other)
VL: DIQMTQSPSSLSASVGDRVTITCRASQYISRQLRWYQQKPGKAPRLLIYGASVLQSGIPSRFSGSGSGTDFTLTISSLQPEDFATYYCQQRYITPYTFGQGTKVEVKR
binding result (rat serum albumin [8]): binds

B11: DOM7r-19 (other)
VL: DIQMTQSPSSLSASVGDRVTITCRASQWIYRHLRWYQQKPGKAPKLLIYDASRLQSGVPTRFSGSGSGTDFTLTISSLQPEDFATYYCQQTHNPPKTFGQGTKVEIKR
binding result (rat serum albumin [6]): binds

B12: DOM7r-13 (other)
VL: DIQMTQSPSSLSASVGDRVTITCRASQHIHRELRWYQQKPGKAPKLLIYQASRLQSGVPSRFSGSGSGTDFTLTISSLQPEDFATYYCQQKYLPPYTFGQGTKVEIKR
binding result (human serum albumin [5]): no binding
Kd (rat serum albumin [9]): 80 nM

B13: DOM7r-16 (other)
VL: DIQMTQSPSSLSASVGDRVTITCRASQKIYKNLRWYQQKPGKAPKLLIYNSSILQSGVPSRFSGSGSGTDFTLTISSLQPEDFATYYCQQRYLSPYTFGQGTKVEIKR
Kd (mouse serum albumin [1]): 1000 nM
binding result (human serum albumin [5]): no binding
Kd (rat serum albumin [2]): 1000 nM

B14: DOM7r-4 (other)
VL: DIQMTQSPSSLSASVGDRVTITCRASQWIGRYLRWYQQKPGKAPKLLIYNGSQLQSGVPSRFSGSGSGTDFTLTISSLQPEDFATYYCQQRYLQPYTFGQGTKVEIKR
binding result (mouse serum albumin [7]): binds
binding result (rat serum albumin [8]): binds

B15: DOM7r-14 (other)
VL: DIQMTQSPSSLSASVGDRVTITCRASQHIHRELRWYQQKPGKAPKLLIYQASRLQSGVPSRFSGSGSGTDFTLTISSLQPEDFATYYCQQRYRVPYTFGQGTKVEIKR
binding result (human serum albumin [5]): no binding
Kd (rat serum albumin [9]): 50 nM

B16: DOM7r-3 (other)
VL: DIQMTQSPSSLSASVGDRVTITCRASQYIGRYLRWYQQKPGKAPKLLIYDSSVLQSGVPSRFSGSGSGTDFTLTISSLQPEDFATYYCQQRYMQPFTFGQGTKVEIKR
Kd (mouse serum albumin [1]): > 5000 nM
binding result (human serum albumin [5]): no binding
Kd (rat serum albumin [2]): 12 nM

B17: DOM7h-6 (other)
VL: DIQMTQSPSSLSASVGDRVTITCRASQSISSYLNWYQQKPGKAPTLLIYRLSVLQSGVPSRFSGSGSGTDFTLTISSLQPEDFATYYCQQTYNVPPTFGQGTKVEIKR
binding result (human serum albumin [11]): binds

B18: DOM7m-16 (other)
VL: DIQMTQSPSSLSASVGDRVTITCRASQSIIKHLKWYQQKPGKAPKLLIYGASRLQSGVPSRFSGSGSGTDFTLTISSLQPEDFATYYCQQGARWPQTFGQGTKVEIKR
notes: also called MSA16
Kd (mouse serum albumin [1]): 50 nM
Kd (human serum albumin [5]): > 5000 nM

B19: DOM7m-26 (other)
VL: DIQMTQSPSSLSASVGDRVTITCRASQSIYYHLKWYQQKPGKAPKLLIYKASTLQSGVPSRFSGSGSGTDFTLTISSLQPEDFATYYCQQVRKVPRTFGQGTKVEIKR
notes: also called MSA 26
Kd (mouse serum albumin [1]): 60 nM
Kd (human serum albumin [5]): > 5000 nM

B20: DOM7h-23 (other)
VH: EVQLLESGGGLVQPGGSLRLSCAASGFTFYDYNMSWVRQAPGKGLEWVSTITHTGGVTYYADSVKGRFTISRDNSKNTLYLQMNSLRAEDTAVYYCAKQNPSYQFDYWGQGTLVTVSS
Kd (human serum albumin [10]): 500 to 5000 nM
binding result (mouse serum albumin [1]): no binding
Kd (human serum albumin [5]): 900 nM
binding result (rat serum albumin [9]): no binding

B21: DOM7h-24 (other)
VH: EVQLLESGGGLVQPGGSLRLSCAASGFTFHRYSMSWVRQAPGKGLEWVSTILPGGDVTYYADSVKGRFTISRDNSKNTLYLQMNSLRAEDTAVYYCAKQTPDYMFDYWGQGTLVTVSS
binding result (human serum albumin [4]): binds

B22: DOM7h-26 (other)
VH: EVQLLESGGGLVQPGGSLRLSCTASGFTFDEYNMSWVRQAPGKGLEWVSTILPHGDRTYYADSVKGRFTISRDNSKNTLYLQMNSLRAEDTAVYYCAKQDPLYRFDYWGQGTLVTVSS
Kd (human serum albumin [10]): 100 to 500 nM
binding result (mouse serum albumin [1]): no binding
Kd (human serum albumin [5]): 300 nM
binding result (rat serum albumin [9]): no binding

B23: DOM7h-27 (other)
VH: EVQLLESGGGLVQPGGSLRLSCAASGFTFSDYRMSWVRQAPGKGLEWVSTIISNGKFTYYADSVKGRFTISRDNSKNTLYLQMNSLRAEDTAVYYCAKQDWMYMFDYWGQGTLVTVSS
binding result (human serum albumin [4]): binds

B24: DOM7h-3 (other)
VL: DIQMTQSPSSLSASVGDRVTITCRASQWIDTGLAWYQQKPGKAPRLLIYNVSRLQSGVPSRFSGSGSGTDFTLTISSLQPEDFATYYCQQYWGSPTTFGQGTKVEIKR
binding result (human serum albumin [11]): binds

B25: DOM7h-22 (other)
VH: EVQLLESGGGLVQPGGSLRLSCAASGFTFSKYWMSWVRQAPGKGLEWVSSIDFMGPHTYYADSVKGRFTISRDNSKNTLYLQMNSLRAEDTAVYYCAKGRTSMLPMKGKFDYWGQGTLVTVSS
binding result (mouse serum albumin [1]): no binding
Kd (human serum albumin [5]): 60 nM
binding result (rat serum albumin [9]): no binding

B26: DOM7h-21 (other)
VH: EVQLLESGGGLVQPGGSLRLSCAASGFTFDLYDMSWVRQAPGKGLEWVSSIVNSGVRTYYADSVKGRFTISRDNSKNTLYLQMNSLRAEDTAVYYCAKLNQSYHWDFDYWGQGTLVTVSS
binding result (human serum albumin [4]): binds

B27: DOM7h-4 (other)
VL: DIQMTQSPSSLSASVGDRVTITCRASQEIYSWLAWYQQRPGKAPKLLIYNASHLQSGVPSRFSGSGSGTDFTLTISSLQPEDFATYYCQQVIGDPVTFGQGTKVEIKR
binding result (human serum albumin [11]): binds
